Test results reported in the supplement of paper PMC9170038.

System: MS2 coat protein
Assay: apparent KD of MS2 coat protein; designed switch direction (-1 OFF switch, 1 ON switch): 1; higher = weaker reporter binding
Outline: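 Three titration conditions were used: no input, 200 uM small-molecule ligand, and an oligonucleotide input. In each, SNAP-549-labelled MS2 coat protein was raised from 0.7 or 1.5 nM, doubling, to 3 µM over designed RNA switches transcribed on Illumina chips by stalled E. coli RNA polymerase. Curve fits of normalised cluster fluorescence gave values whose per-design median over clusters is the apparent KD.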

[1] = input ligand: microRNA oligo, concentration not stated
[2] = Eterna round: R95, input ligand: FMN 200 uM
[3] = Eterna round: R95, input ligand: microRNA oligo, concentration not stated
[4] = Eterna round: R95, input ligand: none

Sequence: UAAAUAAUGUAAGGAUAUACAUGAGGAAUUCUCGUAGAAGGUACAUGACAUGAGGAUCACCCAUGUAUCGCUCCGUAGAGCGUA [Mat - Same State NG 1 - JL mod - D26] (Eterna round: R96, puzzle: Same State NG 1)
- apparent KD of MS2 coat protein (input ligand: FMN 200 uM): 288 nM
- apparent KD of MS2 coat protein [1]: 5.78 nM
- apparent KD of MS2 coat protein (input ligand: none): 48.8 nM

Sequence: UUAAUAAUGUAAGGAUAUACAUGAGGAUUUCUCGUAGAAGGUACAUUACAUGAGGAUCACCCAUGUGGGUGUCAGAAGACGCCA [Mat - Same State NG 1 - JL mod - D13] (Eterna round: R96, puzzle: Same State NG 1)
- apparent KD of MS2 coat protein (input ligand: FMN 200 uM): 143 nM
- apparent KD of MS2 coat protein [1]: 953 nM
- apparent KD of MS2 coat protein (input ligand: none): 275 nM

Sequence: GCGAGCGUACUUGCAACAUGAGGAUCACCCAUGUUAACUGGACAGGAUAUGGUACCGUUUCGGUACCAGAAGGGUUCCUUCAUG [JL SSNG3 3.60] (Eterna round: R96, puzzle: Same State NG 3)
- apparent KD of MS2 coat protein (input ligand: FMN 200 uM): 167 nM
- apparent KD of MS2 coat protein [1]: 166 nM
- apparent KD of MS2 coat protein (input ligand: none): 268 nM

Sequence: CCUUAACAUGAGGAUCACCCAUGUAACAAGGAGUAAGGAUAUACAUGGGAAAACAGUCAUGUAGAAGGUACAAAAG [Rexereon] (puzzle: Same State 1)
- apparent KD of MS2 coat protein [2]: 15 nM
- apparent KD of MS2 coat protein [3]: 11.8 nM
- apparent KD of MS2 coat protein [4]: 18 nM

Sequence: GCUAGGAUAUGACGAGGAUCACCCGUUAGAAGGAGCGAAGGCUAGGAUAUGACGAGGAUCACCCGUUAGAAGGAGCUGUACUCU [pwkr ssNG3 DX 2xF5 +2xFMN.10] (Eterna round: R96, puzzle: Same State NG 3)
- apparent KD of MS2 coat protein (input ligand: FMN 200 uM): 188 nM
- apparent KD of MS2 coat protein [1]: 64.9 nM
- apparent KD of MS2 coat protein (input ligand: none): 80.3 nM

Sequence: UGUACUUUCAUAGGAUAUCAUGCGAAAAUUGCGUGAGAAGGGUGAAUACUGUCUUUCUAAGAGUACAUGAGGAUCACCCAUGUA [SameState NG1 #63] (Eterna round: R96, puzzle: Same State NG 1)
- apparent KD of MS2 coat protein (input ligand: FMN 200 uM): 77.3 nM
- apparent KD of MS2 coat protein [1]: 80.2 nM
- apparent KD of MS2 coat protein (input ligand: none): 67.5 nM

Sequence: GUAGCAUACCGAGGAUAUUCAUAUAAUAAAUAAACAUGAGGAUCACCCAUGUGGCGAAAGCCUUGGGAGAAGGCGGAAUGCUAC [Xeonanis - 20 Mod55] (Eterna round: R96, puzzle: Same State NG 2)
- apparent KD of MS2 coat protein (input ligand: FMN 200 uM): 20.7 nM
- apparent KD of MS2 coat protein [1]: 296 nM
- apparent KD of MS2 coat protein (input ligand: none): 486 nM

Sequence: GAAGGAUGAGCGUAGGAUAUAGGAGGAGUGACAUGAGGAUCACCCAUGUAGUAGGAGGGAGGGUACUAGAAGGACGAGGAAGAGG [JR_SS2_Sub068] (puzzle: Same State 2)
- apparent KD of MS2 coat protein [2]: 67 nM
- apparent KD of MS2 coat protein [3]: 32.2 nM
- apparent KD of MS2 coat protein [4]: 57.4 nM

Sequence: ACAUGAGAGAUAGGAUAUGUUGUACCUACAUGUGACAUGAGGAUCACCCAUGUGGUAAGUAUGAGGCAGAAGGAUCAGAUAUGU [Equivalence 41 - Jieux - Same State NG 2] (Eterna round: R96, puzzle: Same State NG 2)
- apparent KD of MS2 coat protein (input ligand: FMN 200 uM): 29.2 nM
- apparent KD of MS2 coat protein [1]: 68.1 nM
- apparent KD of MS2 coat protein (input ligand: none): 88.1 nM

Sequence: GGCCUGCCGCAAGGAUAUGAAGCUUUCGCUCCGUCAGAAGGUGCACAUGAGGAUCACCCAUGUAUGCAGGCCAAGAAAUAAACC [Tisoenat] (Eterna round: R96, puzzle: Same State NG 1)
- apparent KD of MS2 coat protein (input ligand: FMN 200 uM): 13.2 nM
- apparent KD of MS2 coat protein [1]: 25.9 nM
- apparent KD of MS2 coat protein (input ligand: none): 37.1 nM

Sequence: AUUAUUAAUGCAGGAUAUGAUUAACAUGAGGAUCACCCAUGUGGUGUUGUGAGUAAGGAGAGUGAUCAGAAGGGCAUUUUGUUU [JMF's solution 12] (Eterna round: R96, puzzle: Same State NG 2)
- apparent KD of MS2 coat protein (input ligand: FMN 200 uM): 1130 nM
- apparent KD of MS2 coat protein [1]: 526 nM
- apparent KD of MS2 coat protein (input ligand: none): 591 nM

Sequence: GCGGAACAUGAGGAUCACCCAUGUGGAGGGUGUAAAGGAUAUUAUAGAGAGAAGGUAGGGUAAGAAGGUUGCUGGG [JR_SS1_Sub090] (puzzle: Same State 1)
- apparent KD of MS2 coat protein [2]: 624 nM
- apparent KD of MS2 coat protein [3]: 320 nM
- apparent KD of MS2 coat protein [4]: 592 nM

Sequence: AGAUCAUGACGAGGAUAUGGUACAUGAGGAUCACCCAUGUAUGUACUAUAACCCGAAUGAGGAAUCCAGAAGGCGUCGUGGUCA [JL SSNG2 1.13] (Eterna round: R96, puzzle: Same State NG 2)
- apparent KD of MS2 coat protein (input ligand: FMN 200 uM): 24.4 nM
- apparent KD of MS2 coat protein [1]: 56.3 nM
- apparent KD of MS2 coat protein (input ligand: none): 93 nM

Sequence: AGUCCAGCCUGAGCUGGACAAAAGUAUGUACAUGAGGAUCACCCAUGUCAUGUACAAGCUUUUUGCUCGUCUUAAAA [Zipper 46 - 14] (puzzle: Sensor for hsa-mir-208a)
- apparent KD of MS2 coat protein [2]: 287 nM
- apparent KD of MS2 coat protein [3]: 23.6 nM
- apparent KD of MS2 coat protein [4]: 377 nM

Sequence: CGUCCGGCCUGUGCUGGACGGAAGCAUGUACAUGAGGAUCACCCAUGUUCAUGUGCAGGCUUUUUGCUCGUCUUGUG [salish99_mir208a_modof_jandersonlee_005] (puzzle: Sensor for hsa-mir-208a)
- apparent KD of MS2 coat protein [2]: 102 nM
- apparent KD of MS2 coat protein [3]: 13.4 nM
- apparent KD of MS2 coat protein [4]: 117 nM
